Results taken from paper PMC5748984 (The Journal of Cell Biology, 2018).

T1: Gdi1 (UniProt P39958 1-451)
T1 sequence: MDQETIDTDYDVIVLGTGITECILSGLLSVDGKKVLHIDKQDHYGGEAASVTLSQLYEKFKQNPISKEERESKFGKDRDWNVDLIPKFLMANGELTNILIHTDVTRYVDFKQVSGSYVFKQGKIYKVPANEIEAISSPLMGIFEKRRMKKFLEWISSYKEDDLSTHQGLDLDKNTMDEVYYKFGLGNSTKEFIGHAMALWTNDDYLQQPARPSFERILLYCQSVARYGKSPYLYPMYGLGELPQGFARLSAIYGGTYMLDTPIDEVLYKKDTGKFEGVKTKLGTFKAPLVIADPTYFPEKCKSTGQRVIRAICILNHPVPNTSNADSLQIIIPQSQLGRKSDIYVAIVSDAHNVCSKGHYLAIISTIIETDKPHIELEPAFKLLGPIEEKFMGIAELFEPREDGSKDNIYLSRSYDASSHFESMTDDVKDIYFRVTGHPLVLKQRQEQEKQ

T2: Trs120-TAP (budding yeast, UniProt Q04183 1-1289)
T2 sequence: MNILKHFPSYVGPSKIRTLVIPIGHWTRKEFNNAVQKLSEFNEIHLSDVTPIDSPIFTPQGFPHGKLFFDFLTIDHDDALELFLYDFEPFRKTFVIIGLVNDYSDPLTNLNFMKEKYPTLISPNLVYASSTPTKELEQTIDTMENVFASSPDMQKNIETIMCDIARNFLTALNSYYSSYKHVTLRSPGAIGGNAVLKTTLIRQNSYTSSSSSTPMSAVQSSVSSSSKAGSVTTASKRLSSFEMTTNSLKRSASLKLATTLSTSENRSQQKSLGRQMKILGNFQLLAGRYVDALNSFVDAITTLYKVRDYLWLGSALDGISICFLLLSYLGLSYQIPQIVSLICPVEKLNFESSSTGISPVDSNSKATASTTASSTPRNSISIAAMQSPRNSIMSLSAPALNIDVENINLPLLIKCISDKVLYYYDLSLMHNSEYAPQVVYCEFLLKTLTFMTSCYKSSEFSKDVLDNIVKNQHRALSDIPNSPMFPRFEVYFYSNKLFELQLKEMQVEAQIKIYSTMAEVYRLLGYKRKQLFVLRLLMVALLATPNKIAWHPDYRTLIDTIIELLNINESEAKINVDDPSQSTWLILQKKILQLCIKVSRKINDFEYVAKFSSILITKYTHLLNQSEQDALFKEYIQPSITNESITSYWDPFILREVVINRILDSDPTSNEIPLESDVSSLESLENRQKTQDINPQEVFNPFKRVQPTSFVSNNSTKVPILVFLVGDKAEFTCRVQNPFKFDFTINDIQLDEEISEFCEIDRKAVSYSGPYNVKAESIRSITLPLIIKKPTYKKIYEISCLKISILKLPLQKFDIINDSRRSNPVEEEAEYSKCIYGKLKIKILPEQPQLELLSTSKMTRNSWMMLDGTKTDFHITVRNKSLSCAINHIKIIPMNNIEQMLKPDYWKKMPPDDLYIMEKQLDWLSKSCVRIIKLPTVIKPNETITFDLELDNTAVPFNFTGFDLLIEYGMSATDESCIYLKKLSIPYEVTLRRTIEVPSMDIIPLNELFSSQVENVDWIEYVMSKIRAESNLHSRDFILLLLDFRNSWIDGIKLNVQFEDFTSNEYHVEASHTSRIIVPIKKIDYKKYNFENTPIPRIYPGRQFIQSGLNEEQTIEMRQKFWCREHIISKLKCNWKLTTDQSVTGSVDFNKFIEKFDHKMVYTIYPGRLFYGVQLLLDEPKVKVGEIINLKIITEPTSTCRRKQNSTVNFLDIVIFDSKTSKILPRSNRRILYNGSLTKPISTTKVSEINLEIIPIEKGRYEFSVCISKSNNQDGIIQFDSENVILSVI

T3: Trs85-TAP (from yeast) (budding yeast, UniProt P46944 1-698)
T3 sequence: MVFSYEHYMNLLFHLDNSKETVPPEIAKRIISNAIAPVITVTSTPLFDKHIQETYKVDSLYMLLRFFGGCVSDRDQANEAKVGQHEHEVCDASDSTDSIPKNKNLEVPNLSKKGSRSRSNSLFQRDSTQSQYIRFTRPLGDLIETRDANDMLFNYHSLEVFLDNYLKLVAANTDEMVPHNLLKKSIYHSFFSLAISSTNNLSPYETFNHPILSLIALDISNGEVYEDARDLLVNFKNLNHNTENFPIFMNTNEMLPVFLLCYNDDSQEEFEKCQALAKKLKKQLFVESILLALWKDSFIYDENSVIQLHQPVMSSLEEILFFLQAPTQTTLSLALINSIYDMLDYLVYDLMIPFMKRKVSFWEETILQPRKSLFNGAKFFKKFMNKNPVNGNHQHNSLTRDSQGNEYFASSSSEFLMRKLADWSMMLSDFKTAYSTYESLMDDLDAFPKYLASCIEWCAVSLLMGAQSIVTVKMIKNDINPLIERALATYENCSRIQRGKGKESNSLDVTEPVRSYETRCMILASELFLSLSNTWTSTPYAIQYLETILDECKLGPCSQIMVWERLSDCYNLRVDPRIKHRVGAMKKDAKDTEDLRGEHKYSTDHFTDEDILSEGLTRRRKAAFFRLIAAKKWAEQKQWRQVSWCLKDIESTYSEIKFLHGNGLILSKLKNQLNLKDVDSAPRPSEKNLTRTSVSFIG


Legend:
Gdi1 = molecular target: T1, Gdi1; test: SEC
Trs120-TAP = molecular target: T2, Trs120-TAP; test: tandem affinity purification
Trs85-TAP (from yeast) = molecular target: T3, Trs85-TAP (from yeast); test: tandem affinity purification

Binder	binding result (Gdi1)	stoichiometry N (Trs120-TAP)	stoichiometry N (Trs85-TAP (from yeast))
prenylated Ypt1 (natural protein, prenylated with geranylgeranyl pyrophosphate in vitro; loaded with mantGDP) not shown	binds		
Bet3 (endogenous, yeast) (natural protein) MVSTTQSRSLKAMGEEIWKNKTEKINTELFTLTYGSIVAQLCQDYERDFNKVNDHLYSMGYNIGCRLIEDFLARTALPRCENLVKTSEVLSKCAFKIFLNITPNITNWSHNKDTFSLILDENPLADFVELPMDAMKSLWYSNILCGVLKGSLEMVQLDCDVWFVSDILRGDSQTEIKVKLNRILKDEIPIGED		2	2
